B1: prostaglandin endoperoxide synthase-1 (PGHS-1) (Ovis aries) (protein)
chain: ADPGAPAPVNPCCYYPCQHQGICVRFGLDRYQCDCTRTGYSGPNCTIPEIWTWLRTTLRPSPSFIHFLLTHGRWLWDFVNATFIRDTLMRLVLTVRSNLIPSPPTYNIAHDYISWESFSNVSYYTRILPSVPRDCPTPMDTKGKKQLPDAEFLSRRFLLRRKFIPDPQSTNLMFAFFAQHFTHQFFKTSGKMGPGFTKALGHGVDLGHIYGDNLERQYQLRLFKDGKLKYQMLNGEVYPPSVEEAPVLMHYPRGIPPQSQMAVGQEVFGLLPGLMLYATIWLREHNRVCDLLKAEHPTWGDEQLFQTARLILIGETIKIVIEEYVQQLSGYFLQLKFDPELLFGAQFQYRNRIAMEFNQLYHWHPLMPDSFRVGPQDYSYEQFLFNTSMLVDYGVEALVDAFSRQPAGRIGGGRNIDHHILHVAVDVIKESRVLRLQPFNEYRKRFGMKPYTSFQELTGEKEMAAELEELYGDIDALEFYPGLLLEKCHPNSIFGESMIEMGAPFSLKGLLGNPICSPEYWKASTFGGEVGFNLVKTATLKKLVCLNTKTCPYVSFHVPDPRQEDRPGVERPPTEL
B2: prostaglandin endoperoxide synthase-2 (PGHS-2) (Mus musculus) (protein)
chain: ANPCCSNPCQNRGECMSTGFDQYKCDCTRTGFYGENCTTPEFLTRIKLLLKPTPNTVHYILTHFKGVWNIVNNIPFLRSLIMKYVLTSRSYLIDSPPTYNVHYGYKSWEAFSNLSYYTRALPPVADDCPTPMGVKGNKELPDSKEVLEKVLLRREFIPDPQGSNMMFAFFAQHFTHQFFKTDHKRGPGFTRGLGHGVDLNHIYGETLDRQHKLRLFKDGKLKYQVIGGEVYPPTVKDTQVEMIYPPHIPENLQFAVGQEVFGLVPGLMMYATIWLREHNRVCDILKQEHPEWGDEQLFQTSRLILIGETIKIVIEDYVQHLSGYHFKLKFDPELLFNQQFQYQNRIASEFNTLYHWHPLLPDTFNIEDQEYSFKQFLYNNSILLEHGLTQFVESFTRQIAGRVAGGRNVPIAVQAVAKASIDQSREMKYQSLNEYRKRFSLKPYTSFEELTGEKEMAAELKALYSDIDVMELYPALLVEKPRPDAIFGETMVELGAPFSLKGLMGNPICSPQYWKPSTFGGEVGFKIINTASIQSLICNNVKGCPFTSFNVQDPQPTKTATINASASHSRLDDINPTVLIKRRSTEL

What was measured:
purified protein [1] = substrate: CCCCC/C=C\C/C=C\C/C=C\C/C=C\CCCC(=O)Nc1cccc(O)c1; experiment: purified protein; details: heme
purified protein [2] = substrate: CCCCC/C=C\C/C=C\C/C=C\C/C=C\CCCC(=O)O; experiment: purified protein; details: heme

Protein	Km (purified protein [1]) [µM]	kcat (purified protein [1]) [s⁻¹]	kcat/Km (purified protein [1]) [M⁻¹ s⁻¹]	Km (purified protein [2]) [µM]	kcat (purified protein [2]) [s⁻¹]	kcat/Km (purified protein [2]) [M⁻¹ s⁻¹]
B1	15 ± 1	22 ± 1	1.5e+06 ± 1e+06	3.4 ± 0.6		
B2				2.5 ± 0.4	47	1.9e+07
